Assay [1] addresses Adnectin1-tFhuA. As to the kind of experiment: single-channel electrical recording (nanopore, resistive pulse); single Adnectin1-tFhuA sensor in a planar lipid bilayer, EGFR added to the cis side; +20 mV; 300 mM KCl, 10 mM Tris-HCl, pH 8.0, no TCEP; 24 ± 1 °C; two-exponential capture durations (short- and long-lived).
Assay [2] has as its target Adnectin1-tFhuA. In words: single-channel electrical recording (nanopore, resistive pulse); single Adnectin1-tFhuA sensor in a planar lipid bilayer, 20 nM EGFR cis, in the presence of 5% (v/v) fetal bovine serum; +20 mV; filtered at 500 Hz.

As for “ectodomain of epidermal growth factor receptor (EGFR) (from UniProt P00533 25-645) (domain or fragment)”, in the assay with Adnectin1-tFhuA [1], the tau off-1 at 20 nM EGFR, without FBS (Fig. 5i) stood at 0.044 s; the tau off-2 at 20 nM EGFR, without FBS (Fig. 5i) was 0.982 s; the tau on (released duration) at 10 nM EGFR was 0.78 s; the tau on (released duration) at 20 nM EGFR came out at 0.42 s. In the assay with Adnectin1-tFhuA [1], the tau on (released duration) at 20 nM EGFR, without FBS (Fig. 5h) was determined as 0.4 s and the tau on (released duration) at 40 nM EGFR was 0.25 s. In the assay with Adnectin1-tFhuA [2], the tau off-1 at 20 nM EGFR with 5% FBS (Fig. 5k) worked out at 0.036 s, the tau off-2 (mean duration of long-lived blockades) with 5% FBS stood at 0.93 s, the tau off-2 at 20 nM EGFR with 5% FBS (Fig. 5k) amounted to 0.81 s and the tau on (released duration) at 20 nM EGFR with 5% FBS (Fig. 5j) worked out at 0.607 s. Besides, the tau on-2 with 5% FBS with Adnectin1-tFhuA [2] stood at 1.7 s.

Source of the values: article PMC10027671.
